Our source for the Km, kcat and kcat/Km values is PMC2858264.

Assay in all cases: purified protein
Substrate in data set [1]: C[C@@H](O)CSCCS(=O)(=O)O
The note with it: oxidation, 10 mM NAD+, pH 7.5, 30 °C.

Substrate in data set [2]: C[C@H](O)CSCCS(=O)(=O)O
The following applies: oxidation, 10 mM NAD+, pH 7.5, 30 °C.

Substrate in data set [3]: CC(=O)CSCCS(=O)(=O)O
The following applies: reduction, 0.17 mM NADH, pH 7.5, 30 °C.

Substrate in data set [4]: C[C@@H](O)CSCCS(=O)(=O)O
Format: biochemical, Xanthobacter versatilis. The note with it: oxidation, 10 mM NAD+, pH 7.5, 30 °C.

Substrate in data set [5]: O=S(=O)(O)CCSCCO
Format: biochemical, Xanthobacter versatilis. The note with it: oxidation, 5 mM NAD+, pH 7.5, 30 °C.

Substrate in data set [6]: C[C@H](O)CSCCS(=O)(=O)O
Format: biochemical, Xanthobacter versatilis. The following applies: oxidation, 10 mM NAD+, pH 7.5, 30 °C.

Substrate in data set [7]: CC(=O)CSCCS(=O)(=O)O
Format: biochemical, Xanthobacter versatilis. The following applies: reduction, 0.17 mM NADH, pH 7.5, 30 °C.

B1: rS-HPCDH1 (Xanthobacter versatilis) (protein)
chain: MLDAEVIAITGGAAGIGLAVAHAAIRAGARVALIDRDGACAQRAAAEFGAAAWGVGADVTDEAAITAAMAGAQRALGPLTGLVNNAGIAGFGSVHATEVETWSRIMAVNVTGTFLASKAALFGMLERGRGAIVNFGSVAGLVGIPTMAAYCAAKGAVVNLTRQMAADYSGRGIRVNVVCPGTVAGTDMGRQLLGTDCDPELEARRLAKYPMGRFGTPEDIAEAAVFLLSTKAAFVTGSVLAVDGGMTAI
Take B1: in data set [1], the Km is 5.2 ± 0.3 mM, the kcat is 2.4 s⁻¹ and the kcat/Km amounted to 460 M⁻¹ s⁻¹. For the same protein, in data set [2], the Km came out at 220 ± 20 µM, the kcat was found to be 28 s⁻¹ and the kcat/Km came out at 130000 M⁻¹ s⁻¹. Moreover, in data set [3], the Km stood at 240 ± 10 µM, the kcat was 20 s⁻¹ and the kcat/Km was 83000 M⁻¹ s⁻¹.

B2: rR-HPCDH1 (Xanthobacter versatilis) (protein)
chain: SRVAIVTGASSGNGLAIATRFLARGDRVAALDLSAETLEETARTHWHAYADKVLRVRADVADEGDVNAAIAATMEQFGAIDVLVNNAGITGNSEAGVLHTTPVEQFDKVMAVNVRGIFLGCRAVLPHMLLQGAGVIVNIASVASLVAFPGRSAYTTSKGAVLQLTKSVAVDYAGSGIRCNAVCPGMIETPMTQWRLDQPELRDQVLARIPQKEIGTAAQVADAVMFLAGEDATYVNGAALVMDGAYTAI
For the protein B2, the Km in data set [4] was found to be 96 ± 7 µM; in data set [5], 960 ± 100 µM; in data set [6], 220 ± 70 µM; in data set [7] it was 68 ± 10 µM. The kcat stood at 48 ± 1 s⁻¹ in data set [4] and 0.12 ± 0.01 s⁻¹ in data set [6]. Moreover, the values for the kcat/Km in data set [4] and in data set [6] were 500000 M⁻¹ s⁻¹ and 530 M⁻¹ s⁻¹, respectively.
